# US20200345839A1 (DESENTUM, published 2020)
# B1: recombinant wild-type Equ c 1 allergen (other)
# chain: QQEENSDVAIRNFDISKISGEWYSIFLASDVKEKIEENGSMRVFVDVIRALDNSSLYAEYQTKVNGECTEFPMVFDKTEEDGVYSLNYDGYNVFRISEFENDEHIILYLVNFDKDRPFQLFEFYAREPDVSPEIKEEFVKIVQKRGIVKENIIDLTKIDRCFQLRGNGVAQA
# notes: Reported to exist mainly as a dimer at 40 uM; also called rEqu c 1 wt; wt rEqu c 1
# Biological target: the molecule itself
# Experiment: native ESI FT-ICR mass spectrometry, 40 uM in 10 mM ammonium acetate (self-association)
# Procedure: The mass spectrometric experiments were performed with a 12T solariX XR mass spectrometer (Bruker Daltonics, Billerica, Mass., USA), equipped with an Apollo II ion funnel electrospray source. Before a mass spectrometric analysis, the protein sample was exchanged into an ESI-MS compatible ammonium acetate buffer (10 mM, pH 6.9) by using disposable PD-10 desalting columns (GE Healthcare). For mass spectrometric measurements in denaturing solution conditions, protein sample was diluted to 0.2 μM with acetonitrile/water/acetic acid solution. The protein solution was directly infused into the ion source by a syringe pump with a flow rate of […]. The temperature of the drying gas was 200° C. and the pressure of the nebulizing gas was 1.0 bar. Mass spectra were acquired in the positive ion mode over the m/z range of 800-3000 with 1-Mword time-domain transients and 0.05 sec ion accumulation. […] Desalted protein samples were usually measured at a concentration of 40 μM in 10 mM ammonium acetate buffer. Typically, 100 co-added 256-kword time-domain transients were recorded and processed to 512-kword data prior to fast Fourier transform and frequency to mass conversion. The wild-type Equ c 1 allergen and the Equ c 1 mutants were measured using the same instrumental parameters, in order to avoid any bias between the protein samples. […]
protein,measurement,value
B1,binding result,binds
